{"source": "patent US20180022822A1", "about": "“NOVEL ANTI-FIBROBLAST ACTIVATION PROTEIN (FAP) BINDING AGENTS AND USES THEREOF” (Mabimmune Diagnostics AG, priority 2016, published 2018)", "molecules": {"B1": {"name": "NI-206.82C2: human-derived recombinant anti-FAP antibody; VH SEQ ID NO: 2 or 4 (PIMC), VL SEQ ID NO: 6 (antibody, V domains shown)", "VH": "QVQLQQSGPGLVKPSQTLSLTCAISGDSVSSNSVTWNWIRQSPSRGLEWLGRTYYRSKWYNDYAVSVKGRITINPDTSKNQFYLQLKSVTPEDAAVYYCARDSSILYGDYWGQGTLVTVSS", "VL": "QAVLTQPSSLSASPGASASLTCTLPSGINVGTYRIFWFQQKPGSPPQYLLSYKSDSDNHQGSGVPSRFSGSKDASANAGILLISGLQSEDEADYYCMIWHSSAWVFGGGTKLTVL"}}, "key": {"recombinant human FAP": {"biological_target": "T1, recombinant human FAP (Homo sapiens, UniProt Q12884)", "T1 construct": "purchased Sino Biologicals 10464-H07H", "T1 sequence (Q12884 26-760 limits assumed)": "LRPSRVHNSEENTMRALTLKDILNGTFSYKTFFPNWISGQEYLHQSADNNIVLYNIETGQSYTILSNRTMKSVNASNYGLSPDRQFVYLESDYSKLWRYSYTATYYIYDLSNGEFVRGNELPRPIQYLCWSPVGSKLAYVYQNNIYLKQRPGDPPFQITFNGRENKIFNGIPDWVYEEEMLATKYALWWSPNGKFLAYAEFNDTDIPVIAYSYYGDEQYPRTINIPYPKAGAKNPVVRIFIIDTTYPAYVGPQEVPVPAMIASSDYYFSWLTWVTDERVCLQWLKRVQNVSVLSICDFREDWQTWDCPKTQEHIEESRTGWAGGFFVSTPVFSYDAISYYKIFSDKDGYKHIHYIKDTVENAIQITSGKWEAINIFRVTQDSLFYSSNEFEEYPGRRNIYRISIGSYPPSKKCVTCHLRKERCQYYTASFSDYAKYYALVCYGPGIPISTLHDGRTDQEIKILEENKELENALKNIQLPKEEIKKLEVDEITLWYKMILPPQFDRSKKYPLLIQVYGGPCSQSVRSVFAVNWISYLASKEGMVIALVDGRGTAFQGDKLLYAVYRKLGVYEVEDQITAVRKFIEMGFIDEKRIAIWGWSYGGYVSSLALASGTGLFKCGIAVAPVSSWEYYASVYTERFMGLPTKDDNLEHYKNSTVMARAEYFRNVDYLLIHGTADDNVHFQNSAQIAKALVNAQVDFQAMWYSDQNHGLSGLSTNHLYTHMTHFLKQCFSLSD", "experiment": "mechanism of inhibition of rhuFAP-mediated PEP (Z-Gly-Pro-AMC) cleavage", "type": "biochemical", "details": "0-1000 nM antibody, 20-100 μM Z-Gly-Pro-AMC; Lineweaver-Burk", "experimental": "A black flat bottom standard 96-well ELISA plate was blocked for 1 hr at 37° C. using sterile blocking buffer: 5% bovine serum albumin (BSA) in phosphate buffered saline (PBS). 10 μL of recombinant human FAP solution: 0.4 nM recombinant human FAP (Sino Biologicals, 10464-H07H), in 225 mM Sodium phosphate buffer, pH 7.4) was added to each well. Then, 80 μL of NI-206.82C2 at the indicated concentrations in PBS were added to the wells incubated for 1 hr at 37° C. Then, 10 μL of fluorogenic substrate solution (Z-Gly-Pro-AMC in 40% methanol and 60% 25 […]) was added to each well. The fluorescence intensity was measured at 360 nm excitation and 460 nm emission every 3 min over a total reading time of 2 hr."}, "[1]": {"tested_on": "human invasive ductal carcinoma and invasive lobular carcinoma sections", "experiment": "confocal immunofluorescence on human carcinoma cryosections", "details": "Cy3 labelled antibody", "experimental": "NI-206.82C2 was labelled with Cyanine 3 for fluorescent imaging (Cy3 conjugation kit: Innova Biosciences, 340-0030) and antibody labelling was validated using a spectophotometer. Cryosections from human invasive ductal carcinoma tissues (FIG. 9, A) and invasive lobular carcinoma (FIG. 9, B) were fixed for 5 minutes in ice cold acetone and allowed to dry for 10 minutes before washing in PBS. The sections were then incubated for 1 hr at room temperature in 5% BSA in PBS. The tissue sections were then incubated with Cyanine 3 prelabelled antibodies overnight at 4° C., and then washed three times in PBS before incubation with DAPI at 0.5 μg/mL. Sections were then washed three additional times in PBS and mounted in Lisbeth's mounting medium before imaging on a SP8 confocal microscope (Leica Microsystems)."}, "[2]": {"tested_on": "CT-26 syngeneic liver metastasis", "experiment": "immunofluorescence on murine CT-26 colorectal cancer tissue sections", "design": "species or system mouse", "details": "Cy5 labelled antibody, 10 μg/mL", "experimental": "NI-206.82C2 was prelabelled with Cyanine 5 antibody labeling kit (Innova Biosciences, 342-0010), and sufficient antibody labelling was validated with a photospectrometer. Cryosections of mouse livers containing syngeneic CT-26 liver metastasis were allowed to dry for 30 min at room temperature the fixed for 10 min in 4% formalin in PBS. Slides were then washed 3 times for 5 minutes in PBS and blocked for 1 hr at room temperature with 5% bovine serum albumin in PBS.\nThe slides were then incubated overnight at 4° C. with staining solution containing DAPI at 0.5 μg/mL, and Alexa 547 phalloidin (Invitrogen) according to the manufacturer's instructions, and either Cy5 labelled NI-206.82C2 or a Cy5 labelled isotype-matched control antibody 3A1 at a concentration of 10 μg/mL, in blocking solution with 0.5% Triton X100. Slides were then washed 3 times in PBS, mounted in Lisbeth's mounting medium, and imaged with an SP8 confocal microscope (Leica Microsystems)."}}, "data": [{"molecule": "B1", "values": [{"measurement": "type of inhibition of FAP-mediated PEP cleavage", "setting": "recombinant human FAP", "result": "non-competitive inhibitor"}, {"measurement": "binding to human invasive ductal and invasive lobular carcinoma sections", "setting": "[1]", "result": "specifically binds"}, {"measurement": "staining of murine CT-26 liver metastasis sections", "setting": "[2]", "result": "found around the perimeter"}]}]}
